The text below walks through data of paper PMC4239648.

The target of the assay is HsiC2Δ1–30, bacterial two-hybrid fusion (P. aeruginosa PAO1). In words: two-hybrid; bacterial two-hybrid (BTH): T25 and T18 fusions of B. pertussis adenylate cyclase co-transformed in E. coli DHM1; spots on MacConkey maltose and X-gal LB agar, 30 °C, at least 48 h; β-galactosidase activity in Miller units.

For “ClpV2, full length, bacterial two-hybrid fusion (enzyme)”, the fold reduction of binding against full-length HsiC2 was 10 fold.
